According to the supplement of paper PMC10724198:
± gives the standard deviation of the averaged measurements.

What follows are sequences tested on Saccharomyces cerevisiae (assay: protein stability index of tFT-peptide fusion (C-terminal peptide) (PSI (0-1 scale)); higher = more stable (slower turnover)). Conditions: genetic background: wild type; temperature: 30 C.
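Also: PSI is a weighted mean of sequencing reads over stability bins, variants kept only with over 10 reads, mCherry proximal and sfGFP distal, peptide attached via GGGS linker.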

In order of falling protein stability index:
1. RPSLPPSPPPPP  0.848 ± 0.22
2. RIVQQATHVREH  0.787 ± 0.011
3. RKVTKLYDNIML  0.776 ± 0.1
4. RILNADSREHSS  0.775 ± 0.12
5. RQSLEDSLLHQH  0.774 ± 0.081
6. RGLGCEVGTVEV  0.768 ± 0.0077
7. RMSHFNTDSVHF  0.761 ± 0.019
8. RKMQKKFESKKM  0.76 ± 0.039
9. RLREVVHKYNSI  0.757 ± 0.086
10. RKTQKIEQKQKE  0.756 ± 0.076
11. RRPLLSTPAPCS  0.755 ± 0.025
12. RRLNNTPPVENC  0.753 ± 0.15
13. RFPFGPAPPPTP  0.744 ± 0.042
14. RLWSSFKRHGAA  0.743 ± 0.022
15. RPLPPPPPPRSP  0.741 ± 0.21
16. RLSLGPGLLGSH  0.74 ± 0.014
17. RGRAVGGARKFG  0.739 ± 0.029
18. RLLFPPPMLPPP  0.735 ± 0.038
19. RMATGNPAPHPP  0.735 ± 0.04
20. RESGASLWATMR  0.734 ± 0.015
21. RRGLHWQAVCRY  0.733 ± 0.023
22. RPPPGTPPGWSP  0.73 ± 0.028
23. RGGGGGGDCVGA  0.727 ± 0.018
24. RGRPRRGGGVSG  0.727 ± 0.047
25. REEGGWGEAWRE  0.726 ± 0.049
26. RKQRERGKCGKR  0.726 ± 0.031
27. RPPAPQTATPHR  0.726 ± 0.013
28. RRAAVGGCLGGW  0.726 ± 0.017
29. RLVISPRSRPCP  0.725 ± 0.069
30. RGIGIQSVAARN  0.723 ± 0.094
31. RKHMCSYIRVSR  0.723 ± 0.085
32. RPPPPSPAPTPP  0.723 ± 0.045
33. RKKKKDKSAIKE  0.722 ± 0.018
34. RFTIPFSVQRVD  0.721 ± 0.094
35. RKQKRGSKKKKQ  0.721 ± 0.049
36. RGQSGSLSKLLG  0.72 ± 0.026
37. RPGPRAASADCP  0.72 ± 0.025
38. RLWPPGGEFRLV  0.719 ± 0.078
39. RQRSTGGISNRS  0.718 ± 0.043
40. RGCGKGPLLSWF  0.717 ± 0.0093
41. RLRESMYPSSEE  0.717 ± 0.0085
42. RNIMKQQNTSIR  0.717 ± 0.078
43. RGGWYLQKAITP  0.716 ± 0.047
44. RPPCFRPPPPPL  0.715 ± 0.072
45. RLLENVSYDWRN  0.714 ± 0.016
46. RGARPRTPPSPP  0.713 ± 0.03
47. RKRHDLPPAGPH  0.713 ± 0.023
48. RQDGSPREGIRH  0.713 ± 0.04
49. RGRGGGGVVGRW  0.7119 ± 0.0022
50. RGSAPLFVPLSP  0.7106 ± 0.0069
51. RRPAPTRPPHTK  0.711 ± 0.013
52. RGLPVLTFPHTP  0.71 ± 0.0095
53. RGVLRSETCRLS  0.7104 ± 0.0069
54. RLSSPTRINHPN  0.71 ± 0.04
55. RPLPPLPPPSCP  0.71 ± 0.046
56. RIAEYIDTKCPR  0.708 ± 0.0074
57. RGHPRRRPERKA  0.707 ± 0.09
58. RPSHSRPITLPT  0.707 ± 0.12
59. RLGGLLCSPLVD  0.705 ± 0.097
60. RRHRPKNEVPLC  0.705 ± 0.029
61. RRKLMLWTSKLE  0.705 ± 0.05
62. RFYLLAEDGSST  0.703 ± 0.017
63. RHDMTSGCVSHS  0.703 ± 0.039
64. RPRVETGGLPWV  0.703 ± 0.029
65. RKNENKKKKNKK  0.702 ± 0.012
66. RRGRNDLEESMR  0.702 ± 0.0078
67. RRLMMPSGQGLT  0.702 ± 0.031
68. RPAPPPHPLSPV  0.7 ± 0.031
69. RPAPPLFVSSPG  0.699 ± 0.0097
70. RRDRRVGEGEGV  0.699 ± 0.059
71. RHPALPGPPGSS  0.698 ± 0.13
72. RKRTIVCRPGRV  0.698 ± 0.021
73. RLSCCKCRGGAV  0.6979 ± 0.0042
74. RNGALSVVCDYV  0.698 ± 0.15
75. RGHTTYCGPALI  0.697 ± 0.08
76. RKEQKGKGKEGG  0.697 ± 0.024
77. RNRTNVETKTGS  0.6966 ± 0.0034
78. RRIQNHPDSTSA  0.696 ± 0.067
79. RFAGLRDVGCFL  0.695 ± 0.034
80. RGIYSIGASGRS  0.695 ± 0.033
81. RGYVGVTQVCKN  0.695 ± 0.043
82. RLPPPSPPVPLL  0.695 ± 0.0081
83. RHLACFWFRPPW  0.694 ± 0.018
84. RKKTKKEKSEEI  0.694 ± 0.031
85. RLTLPSQPHAPA  0.694 ± 0.098
86. RPPYIALAPSDR  0.694 ± 0.0097
87. RFSVRGARHRCG  0.693 ± 0.0079
88. RPIPMEGAYYLV  0.693 ± 0.027
89. RLGECSRKSYHT  0.692 ± 0.024
90. RKEKKMKITKRC  0.691 ± 0.044
91. RLSFSVPPCLDI  0.691 ± 0.032
92. RPGDAASGARGA  0.691 ± 0.081
93. RGARGGRLVCRE  0.689 ± 0.043
94. RGCGGGRVAREC  0.689 ± 0.051
95. RKKGRKKKQDKN  0.689 ± 0.023
96. RIVASTLKSYLT  0.68835 ± 0.00068
97. RLPPPPSPPPPP  0.688 ± 0.016
98. RLAPASAFPHSP  0.687 ± 0.052
99. RLTYVGDYELYV  0.686 ± 0.053
100. RKKIKRKNNKEK  0.685 ± 0.052
101. RRARSAGADPRP  0.684 ± 0.02
102. RRNDRKKKSIRI  0.684 ± 0.059
103. RGGGEGGKEDSQ  0.682 ± 0.047
104. RFINRVVAGDRR  0.681 ± 0.032
105. RIERIYEIKKNR  0.68086 ± 7.2e-05
106. RKLHDKDDPKTI  0.681 ± 0.03
107. RGGGVRYGVARR  0.68 ± 0.059
108. RKKENRYKIEVK  0.6799 ± 0.0017
109. RPPPPLPQAPPT  0.679 ± 0.0082
110. RPPPRPPHPPPL  0.6791 ± 0.0048
111. RHLRSGTRAKVY  0.678 ± 0.013
112. RLPVKQQVLPDK  0.6783 ± 0.0062
113. RRPLAPHPPLPP  0.678 ± 0.01
114. RGARGGSRGGGG  0.677 ± 0.086
115. RGPRSSGRKGIR  0.676 ± 0.042
116. RLFPSPIYLARF  0.676 ± 0.12
117. RPPPPPSPPPPP  0.674 ± 0.073
118. RICTLCRGGRTP  0.673 ± 0.03
119. RRGYEVSSLSDD  0.672 ± 0.0042
120. RRIIISSSYIYE  0.672 ± 0.012
121. REEFHGLKGRGG  0.671 ± 0.046
122. RILIRVQSSKLR  0.671 ± 0.09
123. RLVTSCSAAGSG  0.671 ± 0.007
124. RGRFVVGAGRED  0.67 ± 0.077
125. RKIRRLIVKKGI  0.67 ± 0.022
126. RPFPLTRPTLLF  0.67 ± 0.016
127. RRGEKKDEKGGR  0.67 ± 0.062
128. RFLVRSFIGWRG  0.669 ± 0.031
129. RGCRLRCSLPGR  0.669 ± 0.056
130. RGRGKVGLWEGS  0.669 ± 0.067
131. RKVVLLFGLGEG  0.669 ± 0.026
132. REWRLVTCSDCL  0.668 ± 0.023
133. RLHSLLFYALGS  0.668 ± 0.028
134. RESRGAGGGEGG  0.667 ± 0.033
135. RFLLSITSSLVL  0.666 ± 0.043
136. RFYSKDLVHLST  0.6656 ± 0.0031
137. RGGRLQVGMEAV  0.6653 ± 0.0022
138. RQKNKIATVVEE  0.664 ± 0.026
139. RGIRDQRKSKDK  0.663 ± 0.029
140. RHGLPPAPILSP  0.661 ± 0.038
141. RLDGVTPVRTCL  0.661 ± 0.054
142. RFYFSLSWSGFC  0.66 ± 0.077
143. RKQHKLRKTKRA  0.657 ± 0.061
144. RERTNKKLAKDK  0.656 ± 0.045
145. RGGSVDCRGNPL  0.656 ± 0.013
146. RLRRSSSNPHSP  0.656 ± 0.043
147. RFGRGAVWGLGG  0.6554 ± 0.0051
148. RPEVRIHITSQS  0.655 ± 0.017
149. RGGVFGTCGVGG  0.653 ± 0.035
150. RGQDGSEGRGPA  0.653 ± 0.02
151. REGALVYWGFLG  0.652 ± 0.018
152. RGGCLPTCPQET  0.652 ± 0.026
153. RPTQYIYGINET  0.6525 ± 0.0034
154. RKINQKNNEKNS  0.648 ± 0.0037
155. RPSVSNVSEAEE  0.6479 ± 0.0037
156. RLVAHPSRPLPV  0.647 ± 0.033
157. RPSPSAQFITCA  0.646 ± 0.013
158. RLEDGCGVGAGR  0.645 ± 0.015
159. RPTPLSTPPPLG  0.644 ± 0.039
160. RLSPPPTLSRFH  0.643 ± 0.03
161. RIIIRNIKKKTE  0.641 ± 0.023
162. RRAAYARVFCRI  0.641 ± 0.046
163. RPSLTPSPPPFP  0.64 ± 0.018
164. RGALGVVWSGLD  0.637 ± 0.023
165. RLAVGMIRPQGE  0.637 ± 0.024
166. RLQSSRQMLVPS  0.63729 ± 0.00036
167. REKQRYEERLRE  0.636 ± 0.018
168. RGGRMGFYLVCI  0.636 ± 0.028
169. RREKQKTPAKKT  0.634 ± 0.034
170. RGLRVWWGLVGV  0.633 ± 0.044
171. RPKPKRIGREEP  0.63 ± 0.083
172. RLLGSSPAVLLY  0.628 ± 0.062
173. RIDRDDHLVPNS  0.626 ± 0.092
174. RLSNIARRQENG  0.623 ± 0.017
175. RGCSAVEKARPC  0.622 ± 0.0067
176. RGWGWGRKVSVG  0.62 ± 0.069
177. RLLDLRLYVGKG  0.618 ± 0.012
178. RLVLRGRWGIGR  0.618 ± 0.0014
179. RLYCSWEFTFVQ  0.617 ± 0.019
180. RESVSPCLVGAV  0.616 ± 0.056
181. RGGGRDGQTRGV  0.6165 ± 0.0045
182. RPPYRRSPPRSP  0.616 ± 0.019
183. RGRMGLGAPGGG  0.615 ± 0.0085
184. RRGVAEGVDGEG  0.615 ± 0.0071
185. RRLLLAGTQLYV  0.598 ± 0.073
186. RRADFSWPVVVE  0.591 ± 0.022
187. RRKGVAGKWARR  0.586 ± 0.058
188. RNKEPRSSRQNS  0.578 ± 0.009
189. RFSMVVVERYSC  0.577 ± 0.0062
190. RHILFLLLTPHS  0.5774 ± 0.0026
191. RKFLCKSPIECS  0.574 ± 0.015
192. RLGRATLLLLFF  0.572 ± 0.12
193. RKSKYKGTQRIN  0.564 ± 0.011
194. RLTLKKMIKQNV  0.56 ± 0.016
195. RLLYGICLLGAS  0.558 ± 0.092
196. RKKRRKVKRSEK  0.547 ± 0.034
197. RLGPSAPLFVHL  0.542 ± 0.042
198. RLLASIRAAQAS  0.525 ± 0.1
199. RLLLSVLFGFFA  0.5248 ± 0.0011
200. RNIQKKKKIQHI  0.514 ± 0.047
201. RKMTSIINKKTV  0.513 ± 0.0083
202. RLWKQPWLTMAF  0.496 ± 0.038
